In publication PMC10580930 one finds Km, kcat and kcat/Km data, which are given here for 1 substance.

Series [1] relates to C[C@@H](O)[C@H]1C(=O)N2C(C(=O)O)=C(SCCN=CN)C[C@H]12. Nature of the series: purified protein. Particulars: phosphate-buffered solution (1x), 50 µM ZnSO4, room temperature.
Series [2] concerns C[C@@H](O)[C@H]1C(=O)N2C(C(=O)O)=C(S[C@@H]3CN[C@H](C(=O)N(C)C)C3)[C@H](C)[C@H]12. Nature of the series: purified protein. The following applies: phosphate-buffered solution (1x), 50 µM ZnSO4, room temperature.

As for VIM-2 (Pseudomonas aeruginosa), in series [1], the Km came out at 10.31 µM, the kcat was determined as 11.1 s⁻¹ and the kcat/Km came out at 1.1e+06 M⁻¹ s⁻¹. Besides, in series [2], the Km is 5.37 µM, the catalytic constant (kcat) worked out at 2.1 s⁻¹ and the kcat/Km was found to be 400000 M⁻¹ s⁻¹.

In general, Km refers to the concentration of substrate that gives half-maximal velocity. Broadly, the kcat is the maximal rate divided by the concentration of active sites. As a reminder, the kcat/Km is the turnover number divided by the Michaelis constant.
